6 molecules from patent US20070004634A1 (published 2007) can be followed below.

Assay [1] concerns the target soluble human insulin mini-receptor (mIR) (human, UniProt P06213-2 28-746, limits assumed). In words: FP vs FITC-RP9 on mIR.
For assay [2], the target named is T1, soluble human insulin receptor-immunoglobulin heavy chain chimera (sIR-Fc) (human, UniProt P06213-2 28-944, limits assumed).
T1 construct: extracellular domain; not shown: immunoglobulin heavy chain constant domains
In words: FP competition against FITC-RP9 on sIR-Fc.

For assay [3], the target named is T2, His-tagged soluble recombinant human IGF-IR (srhIGF-1R-his) (human, UniProt P08069 31-935).
T2 construct: extracellular domain; Bought construct; not shown: His tag
In words: ALPHAScreen competition against b-hIGF-1 on srhIGF-1R-his. Background: Alpha assays give light when donor and acceptor beads are brought close together.

For assay [4], the target named is T3, IGF-1R on cells (MCF-7, MiaPaCa, FDC-P2 cells expressing human IGF-1R) (human, UniProt P08069 31-1367). Nature of the assay: cell-based or functional assay.
For assay [5], the target named is T4, human insulin receptor (HIR) (human, UniProt P06213-2 28-1370, limits assumed).
T4 construct: detergent-solubilized receptor
T4 sequence (P06213 other isoform, or with tags, fused parts or gaps limits assumed): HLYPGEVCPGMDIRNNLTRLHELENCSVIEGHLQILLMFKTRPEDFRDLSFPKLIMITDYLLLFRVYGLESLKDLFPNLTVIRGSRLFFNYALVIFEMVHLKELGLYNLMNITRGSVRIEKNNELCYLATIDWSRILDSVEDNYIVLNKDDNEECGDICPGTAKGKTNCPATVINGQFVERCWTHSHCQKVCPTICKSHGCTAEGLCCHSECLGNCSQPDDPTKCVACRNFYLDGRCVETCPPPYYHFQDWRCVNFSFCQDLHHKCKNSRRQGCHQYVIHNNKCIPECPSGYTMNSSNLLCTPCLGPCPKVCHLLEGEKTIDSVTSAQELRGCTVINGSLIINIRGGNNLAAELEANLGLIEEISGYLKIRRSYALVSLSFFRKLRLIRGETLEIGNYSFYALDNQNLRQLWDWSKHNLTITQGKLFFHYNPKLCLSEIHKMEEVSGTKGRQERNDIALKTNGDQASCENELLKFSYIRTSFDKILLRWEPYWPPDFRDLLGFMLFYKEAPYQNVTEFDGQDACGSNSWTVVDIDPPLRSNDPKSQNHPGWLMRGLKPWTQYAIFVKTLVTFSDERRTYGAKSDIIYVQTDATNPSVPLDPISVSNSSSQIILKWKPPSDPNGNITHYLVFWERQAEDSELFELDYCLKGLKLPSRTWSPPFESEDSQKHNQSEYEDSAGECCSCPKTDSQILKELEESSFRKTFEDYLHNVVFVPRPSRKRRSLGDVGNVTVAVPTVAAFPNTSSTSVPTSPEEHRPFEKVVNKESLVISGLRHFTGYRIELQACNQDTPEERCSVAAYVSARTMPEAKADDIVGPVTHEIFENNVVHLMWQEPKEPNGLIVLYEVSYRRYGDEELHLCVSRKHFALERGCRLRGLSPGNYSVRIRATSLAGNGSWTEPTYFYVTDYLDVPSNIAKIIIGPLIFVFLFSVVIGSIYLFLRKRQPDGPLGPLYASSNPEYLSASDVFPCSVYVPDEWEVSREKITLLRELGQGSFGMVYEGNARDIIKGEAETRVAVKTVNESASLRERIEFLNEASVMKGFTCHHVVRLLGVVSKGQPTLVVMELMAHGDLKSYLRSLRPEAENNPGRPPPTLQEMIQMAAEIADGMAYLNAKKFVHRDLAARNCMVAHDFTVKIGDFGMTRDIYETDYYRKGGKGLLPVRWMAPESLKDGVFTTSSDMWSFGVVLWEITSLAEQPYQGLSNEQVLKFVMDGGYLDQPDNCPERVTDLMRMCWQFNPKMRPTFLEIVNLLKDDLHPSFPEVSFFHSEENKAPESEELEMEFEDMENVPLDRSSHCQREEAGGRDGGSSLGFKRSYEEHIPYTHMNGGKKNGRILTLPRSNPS
Nature of the assay: 125I-insulin competition, solubilized HIR.

Assay [6] addresses T3, IGF-1R on cells (MCF-7, MiaPaCa, FDC-P2 …). In words: cell-based or functional assay. The source holds these as a separate data set.
In assay [7] the target is T2, His-tagged soluble recombinant human …. Nature of the assay: ALPHAScreen competition against b-hIGF-1 on srhIGF-1R-his. This is another data set of the same source.
For assay [8] the target is unchanged. The description is as above. This is another data set of the same source.
Assay [9] deals with T3, IGF-1R on cells (MCF-7, MiaPaCa, FDC-P2 …). Nature of the assay: cell-based or functional assay. This is another data set of the same source.
For assay [10] the target is unchanged. In words: cell-based or functional assay. This is another data set of the same source.
Assay [11] deals with T2, His-tagged soluble recombinant human …. In words: ALPHAScreen competition against b-hIGF-1 on srhIGF-1R-his. This is another data set of the same source.
The target is the same in assay [12]. The assay is described as above. This is another data set of the same source.
Assay [13] has as its target T3, IGF-1R on cells (MCF-7, MiaPaCa, FDC-P2 …). Nature of the assay: cell-based or functional assay. The source holds these as a separate data set.

Where two headings read alike, the source gives them in different places.

T1 sequence (P06213 other isoform, or with tags, fused parts or gaps mutant limits assumed): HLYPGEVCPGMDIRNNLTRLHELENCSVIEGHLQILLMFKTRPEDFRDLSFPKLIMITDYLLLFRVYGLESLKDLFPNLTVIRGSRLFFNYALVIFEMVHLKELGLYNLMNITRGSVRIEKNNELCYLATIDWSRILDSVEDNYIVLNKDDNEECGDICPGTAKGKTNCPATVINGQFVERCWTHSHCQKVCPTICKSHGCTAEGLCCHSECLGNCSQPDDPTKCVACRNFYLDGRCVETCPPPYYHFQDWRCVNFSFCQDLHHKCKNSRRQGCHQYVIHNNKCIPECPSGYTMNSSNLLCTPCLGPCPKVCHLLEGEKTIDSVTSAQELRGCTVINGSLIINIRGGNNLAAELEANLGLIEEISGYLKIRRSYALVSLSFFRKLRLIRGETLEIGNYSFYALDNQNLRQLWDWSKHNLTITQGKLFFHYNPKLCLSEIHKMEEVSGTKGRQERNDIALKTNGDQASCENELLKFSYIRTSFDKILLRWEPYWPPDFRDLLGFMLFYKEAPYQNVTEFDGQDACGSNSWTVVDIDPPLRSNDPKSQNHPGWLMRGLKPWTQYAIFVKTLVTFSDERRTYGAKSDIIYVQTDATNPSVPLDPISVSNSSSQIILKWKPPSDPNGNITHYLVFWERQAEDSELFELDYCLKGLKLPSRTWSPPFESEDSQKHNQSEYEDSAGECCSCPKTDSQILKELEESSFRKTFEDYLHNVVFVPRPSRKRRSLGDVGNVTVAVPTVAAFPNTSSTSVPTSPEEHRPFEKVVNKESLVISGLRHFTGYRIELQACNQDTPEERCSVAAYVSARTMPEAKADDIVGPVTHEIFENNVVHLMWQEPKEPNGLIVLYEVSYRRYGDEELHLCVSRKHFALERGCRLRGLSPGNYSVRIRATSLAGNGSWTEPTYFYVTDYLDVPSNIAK

As usually defined, the IC50 is the concentration needed to halve the response being measured. FHENFYDWFVRQVSKK [H2C] came in with an IC50 in [1] of 770 nM.
On to CWARPCGDAANFYDWFVQQAS (also called C1 (D112); D112) [C1], for which the figures for the IC50 in [2] and in assay [3] were 52 nM and 42 nM, respectively. In addition, the “Cellular IC50 (M), FDC-P2 cell proliferation” value in assay [4] was determined as 4e-06 M.
As usually defined, the Kd is the equilibrium constant for the complex coming apart. A higher Kd goes with a looser complex. The molecule RWPNFYGYFESLLTHFS [S257] showed a Kd in assay [5] of 1400 nM.

B1: D112-12-RP30-IGF (peptide)
chain: ADYKDCWARPCGDAANFYDWFVQQASKKGGSGGSGGSGGSSFYSCLESLVNGGAERSDGQWEGCRAAAGAPVPYPDPLEPRPG
For the molecule B1, the “Cellular EC50 (M), MiaPaCa cell proliferation” value in assay [6] was 2.2e-06 M. For the same molecule, the IC50 in assay [7] and in assay [8] was 170 nM in each case. In assay [9], the “Cellular EC50 (M), MCF-7 cell proliferation” value turned out to be 2.5e-07 M.
Regarding EGYSWLRDVLMEKQAQLKREGSVGRQE [RP56], the “Cellular IC50 (M), MiaPaCa cell proliferation” value in assay [10] stood at 9.4e-06 M. Also, the IC50 in [11] is 60000 nM.
Take GIISQSCPESFYDWFAGQVSDPWWCW [G33]: the IC50 in assay [12] and in assay [8] was 600 nM throughout. The “Cellular EC50 (M), FDC-P2 cell proliferation” value in [13] was 2e-06 M. In addition, the “Cellular EC50 (M), MCF-7 cell proliferation” value in [9] was 3e-07 M.
